The results in this text go back to patent US5726243.

In experiment [1] the target is K1735 M4 tumor cells (melanoma cells). Kind of experiment: adhesion of 3H-thymidine-labelled K1735 M4 cells to peptide-coated Immulon plates, 1 h at 37 °C.
For experiment [2] the target is unchanged. As to the kind of experiment: adhesion of 3H-thymidine-labelled K1735 M4 cells to peptide-coated Immulon plates, 1 h at 37 °C; one mole of SSP counted as three chains.

In turn, “THP-2, branched triple-helical polypeptide incorporating residues 1263-1277 from α1(IV) collagen” returned a peptide concentration at half maximal melanoma cell adhesion in experiment [1] of 1.12 µM.

In turn, “THP-3, branched triple-helical polypeptide of (Gly-Pro-Hyp)8” registered a peptide concentration at half maximal melanoma cell adhesion in experiment [1] above 100 µM.

In experiment [2], GVKGDKGNPGWPGAP [single-stranded peptide (SSP) incorporating residues 1263-1277 from the α1 chain of type IV collagen] gave a peptide concentration at half maximal melanoma cell adhesion of 170 µM.
